In paper PMC5041490 (Nucleic Acids Research, 2016):

Assays:
GST-L3 = GST-L3 (UniProt P39023 1-403); experiment: pull-down
GST-L4 = GST-L4 (UniProt P36578 1-427); experiment: pull-down

B1: His-G5(1–739) W14A (domain or fragment)
chain: MGQEPRTLPPSPNAYCARCSDAVPGGLFGFAARTSVFLVRVGPGAGESPGTPPFRVIGELVGHTERVSGFTFSHHPGQYNLCATSSDDGTVKIWDVETKTVVTEHALHQHTISTLHWSPRVKDLIVSGDEKGVVFCYWFNRNDSQHLFIEPRTIFCLTCSPHHEDLVAIGYKDGIVVIIDISKKGEVIHRLRGHDDEIHSIAWCPLPGEDCLSINQEETSEEAEITNGNAVAQAPVTKGCYLATGSKDQTIRIWSCSRGRGVMILKLPFLKRRGGGIDPTVKERLWLTLHWPSNQPTQLVSSCFGGELLQWDLTQSWRRKYTLFSASSEGQNHSRIVFNLCPLQTEDDKQLLLSTSMDRDVKCWDIATLECSWTLPSLGGFAYSLAFSSVDIGSLAIGVGDGMIRVWNTLSIKNNYDVKNFWQGVKSKVTALCWHPTKEGCLAFGTDDGKVGLYDTYSNKPPQISSTYHKKTVYTLAWGPPVPPMSLGGEGDRPSLALYSCGGEGIVLQHNPWKLSGEAFDINKLIRDTNSIKYKLPVHTEISWKADGKIMALGNEDGSIEIFQIPNLKLICTIQQHHKLVNTISWHHEHGSQPELSYLMASGSNNAVIYVHNLKTVIESSPESPVTITEPYRTLSGHTAKITSVAWSPHHDGRLVSASYDGTAQVWDALREEPLCNFRGHRGRLLCVAWSPLDPDCIYSGADDFCVHKWLTSMQDHSRPPQGKKSIELEKKRLSQPKA
Question: Does B1 bind (GST-L3)?
Answer: binds

Question: Does B1 bind (GST-L4)?
Answer: binds

B2: His-G5(1–739) Y15A (domain or fragment)
chain: MGQEPRTLPPSPNWACARCSDAVPGGLFGFAARTSVFLVRVGPGAGESPGTPPFRVIGELVGHTERVSGFTFSHHPGQYNLCATSSDDGTVKIWDVETKTVVTEHALHQHTISTLHWSPRVKDLIVSGDEKGVVFCYWFNRNDSQHLFIEPRTIFCLTCSPHHEDLVAIGYKDGIVVIIDISKKGEVIHRLRGHDDEIHSIAWCPLPGEDCLSINQEETSEEAEITNGNAVAQAPVTKGCYLATGSKDQTIRIWSCSRGRGVMILKLPFLKRRGGGIDPTVKERLWLTLHWPSNQPTQLVSSCFGGELLQWDLTQSWRRKYTLFSASSEGQNHSRIVFNLCPLQTEDDKQLLLSTSMDRDVKCWDIATLECSWTLPSLGGFAYSLAFSSVDIGSLAIGVGDGMIRVWNTLSIKNNYDVKNFWQGVKSKVTALCWHPTKEGCLAFGTDDGKVGLYDTYSNKPPQISSTYHKKTVYTLAWGPPVPPMSLGGEGDRPSLALYSCGGEGIVLQHNPWKLSGEAFDINKLIRDTNSIKYKLPVHTEISWKADGKIMALGNEDGSIEIFQIPNLKLICTIQQHHKLVNTISWHHEHGSQPELSYLMASGSNNAVIYVHNLKTVIESSPESPVTITEPYRTLSGHTAKITSVAWSPHHDGRLVSASYDGTAQVWDALREEPLCNFRGHRGRLLCVAWSPLDPDCIYSGADDFCVHKWLTSMQDHSRPPQGKKSIELEKKRLSQPKA
Question: Which results are given for B2?
Answer: binding result (GST-L3): binds; binding result (GST-L4): binds
